Test results as given in patent US20240076402A1, “HUMANIZED ANTI-LIV1 ANTIBODIES FOR THE TREATMENT OF BREAST CANCER” (Seagen Inc., priority 2017, published 2024).

How the values were obtained:
Assay type in all cases: in vivo, human
[1] = test system: women with LIV-1-positive, unresectable, locally advanced or metastatic breast cancer (LA/MBC); assay: Phase 1 study of SGN-LIV1A: safety and tolerability
Description: (§1) This ongoing, phase 1 study evaluated safety, tolerability, pharmacokinetics, and anti-tumor activity of SGN-LIV1A (q3wks IV) in women with LIV-1-positive, unresectable, locally advanced or metastatic breast cancer (LA/MBC) (NCT01969643). Patients with measurable disease and >2 prior cytotoxic regimens for LA/MBC were eligible. Patients with ≥Grade 2 neuropathy were excluded. Response was assessed per RECIST v1.1; pts with stable disease (SD) or better could continue treatment until disease progression or intolerable toxicity. At completion of dose escalation in hormone receptor-positive/HER2-negative (HR+/HER2−) and triple-negative (TN) patients, expansion cohorts were opened to further evaluate safety and antitumor activity of monotherapy in TN patients. Tumor biopsies were evaluated for LIV1 expression.
At the completion of dose escalation, multiple expansion cohorts for SGN-LIV1A monotherapy (Part A) treatment were opened to enroll up to 15 patients each with specific breast cancer subtypes at a recommended dose level to further define the safety and antitumor activity. Following an analysis of safety and activity in the 2.0 mg/kg versus 2.5 mg/kg dose cohorts, the recommended phase 2 dose was determined to be 2.5 mg/kg (maximum dose of 200 mg per cycle)

[2] = test system: hormone receptor-positive/HER2-negative (HR+/HER2-) LIV-1-positive LA/MBC; assay: Phase 1 study of SGN-LIV1A: anti-tumor activity per RECIST v1.1, HR+/HER2- patients; details: 17 efficacy evaluable HR+/HER2- patients, dose escalation
Description: as §1

[3] = test system: triple-negative (TN) LIV-1-positive LA/MBC; assay: Phase 1 study of SGN-LIV1A: anti-tumor activity per RECIST v1.1, triple-negative patients
Description: as §1

[4] = test system: patients with LIV-1-positive LA/MBC, weight greater than or equal to 80 kg; assay: Phase 1 dose expansion continuation: safety of a total maximum dose of 250 mg per cycle, with or without GCSF; details: 2.5 mg/kg, >=200 mg up to 250 mg per cycle
Description: This study is a continuation of the dose expansion cohort study for SGN-LIV1A monotherapy (Part A) of the phase 1 study described in Example 1, which includes data from 22 additional administrations of SGN-LIV1A (q3wks IV). Patients were as described in Example 1. These additional administrations were conducted to assess the safety of a total maximum dose of 250 mg per cycle. Patients were dosed at 2.5 mg/kg and each of these 22 additional administrations were greater than or equal to 200 mg per cycle due to the patients having a weight greater than or equal to 80 kg.

[5] = % of 69 patients, 0.5 to 2.8 mg/kg q3wks IV

## SGN-LIV1A: anti-LIV-1 humanized antibody (hLIV22) conjugated to monomethyl auristatin E (MMAE) via a protease-cleavable valine-citrulline linker
[1]; 2.0 mg/kg (N=26)
  febrile neutropenic events or neutropenia-associated SAEs: no febrile neutropenic events or neutropenia-associated SAEs
[1]; 2.5 mg/kg dose level of Part A (monotherapy)
  incidence of Grade 3 or higher neutropenia AEs: 57%
[1]; 2.5 mg/kg, doses <=200 mg (N=18)
  febrile neutropenic events or neutropenia-associated SAEs: no febrile neutropenic events or neutropenia-associated SAEs
[1]; 2.5 mg/kg, doses >200 mg (N=11)
  patients experiencing SAEs associated with neutropenia: 5 of 11
[1]; 2.5 mg/kg, doses >200 mg (N=11), includes the one treatment related death due to sepsis
  febrile neutropenia: 2 of 11
[1]; 19 DLT-evaluable patients, doses of 0.5 to 2.8 mg/kg q3wks IV
  dose-limiting toxicities (DLTs): No dose-limiting toxicities (DLTs) occurred
[1]; 69 patients, total dose exceeded 200 mg per cycle, no other treatment-related deaths on-study
  treatment-related deaths: one treatment-related death due to sepsis
[1]; [5]
  AEs >=Grade 3: anemia: 15%
  AEs >=Grade 3: neutropenia: 25%
  treatment-emergent AE: abdominal pain: 25%
  treatment-emergent AE: alopecia: 36%
  treatment-emergent AE: constipation: 30%
  treatment-emergent AE: decreased appetite: 33%
  treatment-emergent AE: diarrhea: 25%
  treatment-emergent AE: fatigue: 59%
  treatment-emergent AE: nausea: 51%
  treatment-emergent AE: peripheral neuropathy: 44%
[1]; all grades, % of 69 patients, 0.5 to 2.8 mg/kg q3wks IV
  treatment-emergent AE: neutropenia: 25%
[1]; of 69 patients
  patients who discontinued treatment due to AEs: Seven
[1]; of 69 patients, both had a total dose exceeding 200 mg per cycle
  febrile neutropenia: 2 patients
[1]; overall monotherapy study population
  incidence of Grade 3 or higher neutropenia AEs: 39%
[1]; q3wks IV, not exceeded at the highest dose
  maximum tolerated dose: ≥ 2.8 mg/kg
[2]
  patients with SD>=24 wks: one
[2]; 10 SD
  disease control rate (DCR=CR+PR+SD): 59%
[3]; 44 efficacy evaluable TN patients
  confirmed PR rate: 21%
[3]; 44 efficacy evaluable TN patients (dose escalation plus expansion cohorts), 14 PR
  objective response rate (ORR): 32%
[3]; 44 efficacy evaluable TN patients, 14 PR, 14 SD
  DCR: 64%
[3]; 44 efficacy evaluable TN patients, 16 patients
  clinical benefit rate (CBR=CR+PR+SD>=24 weeks): 36%
[3]; TN patients, 95% CI: 6.1, 17.1
  median PFS: 11.3 weeks
[4]; co-administered with GCSF, 7 administrations
  administrations resulting in development of neutropenia: none
[4]; not co-administered with GCSF, 5 of 15 administrations
  administrations resulting in development of neutropenia: 33.3%
